Measurements reported in paper PMC3863775.
Like-named read-outs stand apart in the source and are kept apart here.

Assays:
Assay in all cases: cryo-EM structure; single-particle cryoEM of the icosahedral head of purified BPP-1 virions, frozen hydrated; 50 mM Tris-HCl, 250 mM NaCl, 1 mM MgCl2, pH7.5; ~3.5 Å (capsid), ~3.4 Å (averaged CP and MCP)
[1] = biological target: major capsid protein (MCP) Bbp17 of bacteriophage BPP-1 (Bordetella bacteriophage BPP-1)
[2] = biological target: major capsid protein (MCP) Bbp17 of bacteriophage BPP-1 (Bordetella bacteriophage BPP-1); remark: listed apart in the source
[3] = biological target: cement protein (CP) Bbp16 of bacteriophage BPP-1 (Bordetella bacteriophage BPP-1)

| Substance | stoichiometry N [1] | stoichiometry N [2] | stoichiometry N [3] |
| --- | --- | --- | --- |
| major capsid protein (MCP) Bbp17 of bacteriophage BPP-1 (natural protein) | 6 | 5 |  |
| cement protein (CP) Bbp16 of bacteriophage BPP-1 (natural protein) |  |  | 2 |
